Earlier results in article PMC12384831.
Values joined by “and” are separate entries in the source; they are usually repeats but may differ in a detail not shown here. Equal entries are not always repeated.

Target: VISTA (Homo sapiens) (UniProt Q9H7M9)
UniProt Q9H7M9, sequence (Q9H7M9 33-194): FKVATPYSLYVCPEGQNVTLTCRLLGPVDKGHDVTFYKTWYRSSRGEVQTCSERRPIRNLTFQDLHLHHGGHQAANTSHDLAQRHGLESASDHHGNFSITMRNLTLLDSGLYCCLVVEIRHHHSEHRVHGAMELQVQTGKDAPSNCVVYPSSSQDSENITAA

- Kd: 20 nM and 80 nM
Substance: IGSF11 (from UniProt Q5DX21)
